Two molecules from EP4714971A1 (Shanghai Hansoh Biomedical Co., Ltd., dated 2024) can be followed below.

As a reminder, the EC50 is the concentration at which the effect is half-maximal. For orientation: Kd means the constant that tells how readily two partners part at equilibrium. As a reminder, the koff is the rate constant with which the complex falls apart. By kon is commonly meant a measure of how fast the partners come together.

Assay [1] addresses T1, human SEZ6 expressed on stably transfected CHO-K1 cells (human, UniProt Q53EL9 20-994).
T1 construct: also called CHO-SEZ6; hSEZ6
T1 sequence: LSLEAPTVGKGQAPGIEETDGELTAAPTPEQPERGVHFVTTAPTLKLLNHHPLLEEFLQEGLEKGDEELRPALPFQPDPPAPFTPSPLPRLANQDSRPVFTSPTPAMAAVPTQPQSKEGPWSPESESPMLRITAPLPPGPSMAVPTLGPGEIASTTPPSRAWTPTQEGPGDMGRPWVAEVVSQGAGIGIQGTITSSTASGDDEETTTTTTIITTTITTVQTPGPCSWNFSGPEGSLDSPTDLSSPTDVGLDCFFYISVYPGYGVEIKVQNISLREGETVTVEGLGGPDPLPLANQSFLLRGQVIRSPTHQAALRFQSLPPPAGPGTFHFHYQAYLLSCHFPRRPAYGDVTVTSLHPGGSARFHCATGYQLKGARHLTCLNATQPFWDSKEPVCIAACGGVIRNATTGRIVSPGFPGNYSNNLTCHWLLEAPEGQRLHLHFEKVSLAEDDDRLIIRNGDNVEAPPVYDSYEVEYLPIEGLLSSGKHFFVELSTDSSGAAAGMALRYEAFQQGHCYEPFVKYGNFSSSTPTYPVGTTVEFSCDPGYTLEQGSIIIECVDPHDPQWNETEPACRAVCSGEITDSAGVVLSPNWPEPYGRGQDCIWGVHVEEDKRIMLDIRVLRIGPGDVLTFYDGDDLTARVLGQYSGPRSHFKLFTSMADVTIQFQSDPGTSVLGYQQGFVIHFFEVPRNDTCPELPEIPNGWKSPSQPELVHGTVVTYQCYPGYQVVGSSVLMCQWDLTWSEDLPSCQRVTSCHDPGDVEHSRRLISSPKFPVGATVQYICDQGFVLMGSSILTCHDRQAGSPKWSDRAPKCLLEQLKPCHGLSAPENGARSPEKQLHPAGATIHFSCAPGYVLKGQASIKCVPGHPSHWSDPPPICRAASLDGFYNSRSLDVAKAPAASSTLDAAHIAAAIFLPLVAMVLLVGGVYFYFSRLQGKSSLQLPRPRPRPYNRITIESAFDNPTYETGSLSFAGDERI
In words: flow cytometry on CHO-K1 cells expressing human SEZ6. On the technique in general: A flow cytometer gives signals particle by particle.

The target of assay [2] is T2, Recombinant human SEZ6-His6 protein (human, UniProt Q53EL9 20-925).
T2 construct: also called His-tagged SEZ6 antigen
T2 sequence: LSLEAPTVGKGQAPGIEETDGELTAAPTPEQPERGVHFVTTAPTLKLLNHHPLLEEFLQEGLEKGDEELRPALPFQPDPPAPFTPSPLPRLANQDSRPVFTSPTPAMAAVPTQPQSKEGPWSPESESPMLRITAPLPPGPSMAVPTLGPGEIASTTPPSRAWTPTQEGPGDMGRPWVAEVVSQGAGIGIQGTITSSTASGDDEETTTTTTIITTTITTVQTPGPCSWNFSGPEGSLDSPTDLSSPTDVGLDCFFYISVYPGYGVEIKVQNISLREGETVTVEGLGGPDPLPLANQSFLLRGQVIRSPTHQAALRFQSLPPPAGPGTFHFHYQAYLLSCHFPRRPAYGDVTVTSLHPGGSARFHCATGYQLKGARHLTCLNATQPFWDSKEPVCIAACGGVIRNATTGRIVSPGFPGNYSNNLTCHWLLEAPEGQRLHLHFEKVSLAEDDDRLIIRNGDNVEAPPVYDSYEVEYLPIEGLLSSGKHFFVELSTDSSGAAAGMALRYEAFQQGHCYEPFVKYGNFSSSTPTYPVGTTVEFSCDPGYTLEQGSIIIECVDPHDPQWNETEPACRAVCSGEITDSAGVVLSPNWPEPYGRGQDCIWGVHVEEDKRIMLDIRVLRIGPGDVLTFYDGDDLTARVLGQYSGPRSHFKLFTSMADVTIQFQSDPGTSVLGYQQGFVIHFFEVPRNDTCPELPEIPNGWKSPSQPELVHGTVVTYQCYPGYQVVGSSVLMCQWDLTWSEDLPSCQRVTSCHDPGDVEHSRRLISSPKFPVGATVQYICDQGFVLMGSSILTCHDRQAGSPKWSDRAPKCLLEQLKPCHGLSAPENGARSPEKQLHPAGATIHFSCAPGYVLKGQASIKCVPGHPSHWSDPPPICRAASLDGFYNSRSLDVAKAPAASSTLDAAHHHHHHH
In words: SPR (BIAcore 8K), antibody captured on protein A chip, SEZ6-His6 as analyte, 1:1 Langmuir model. A general note: SPR reads the build-up and loss of mass on a sensor chip optically.

Assay [3] addresses T3, Recombinant monkey SEZ6-His6 protein (cynomolgus monkey, UniProt Q53EL9 20-925 (human entry)).
T3 construct: also called Cynomolgus monkey SEZ6-His6
T3 chain: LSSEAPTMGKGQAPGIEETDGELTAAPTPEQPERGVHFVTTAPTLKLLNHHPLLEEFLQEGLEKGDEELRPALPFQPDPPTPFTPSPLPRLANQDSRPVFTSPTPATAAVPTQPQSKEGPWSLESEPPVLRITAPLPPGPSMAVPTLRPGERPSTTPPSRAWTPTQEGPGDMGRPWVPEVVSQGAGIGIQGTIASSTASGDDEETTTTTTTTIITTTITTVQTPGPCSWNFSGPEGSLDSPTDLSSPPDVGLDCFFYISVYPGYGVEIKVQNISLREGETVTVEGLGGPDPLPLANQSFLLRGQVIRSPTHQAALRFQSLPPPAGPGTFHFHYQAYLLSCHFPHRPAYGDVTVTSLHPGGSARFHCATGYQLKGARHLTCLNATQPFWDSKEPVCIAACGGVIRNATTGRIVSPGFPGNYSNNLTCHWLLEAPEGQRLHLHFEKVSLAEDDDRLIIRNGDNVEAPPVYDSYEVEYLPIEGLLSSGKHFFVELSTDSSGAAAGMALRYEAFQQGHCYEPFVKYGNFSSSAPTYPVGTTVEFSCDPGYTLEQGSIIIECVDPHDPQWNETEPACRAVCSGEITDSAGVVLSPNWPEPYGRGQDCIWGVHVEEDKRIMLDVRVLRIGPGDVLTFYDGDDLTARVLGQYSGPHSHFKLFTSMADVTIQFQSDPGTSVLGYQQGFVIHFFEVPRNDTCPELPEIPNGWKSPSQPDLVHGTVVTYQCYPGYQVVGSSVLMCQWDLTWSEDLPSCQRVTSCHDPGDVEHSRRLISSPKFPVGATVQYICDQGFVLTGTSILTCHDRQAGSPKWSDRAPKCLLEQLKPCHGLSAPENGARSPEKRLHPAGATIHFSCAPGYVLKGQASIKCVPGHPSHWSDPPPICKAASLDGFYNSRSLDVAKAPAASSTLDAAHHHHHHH
The description is as above.

B1: PR3178 (antibody, human IgG1, kappa, V domains shown)
VH: QVQLVQSGAEVKKPGASVKVSCKASGYTFTDYEMHWVRQAPGQGLEWMGGIDPESDNTVYNQKFKGRVTLTEDTSTSTAYMELRSLRSEDTAVYYCTRGDWYFDVWGQGTTVTVSS
VL: DIVMTQSPDSLAVSLGERATINCKSSQSLLNSRTRENYLAWYQQKPGQPPKLLIYWASTRESGVPDRFSGSGSGTDFTLTISSLQAEDVAVYYCGQSYNLFTFGQGTKLEIKR
notes: Humanized, human IgG1, kappa; also called humanized antibody of cAb3009
With B1, in assay [1], the EC50 was found to be 0.05 nM and the MFImax came to 1300. In assay [2], the Kd was found to be 1.61 nM, the koff stood at 0.00064 s⁻¹ and the on-rate (kon) turned out to be 396000 M⁻¹ s⁻¹. Moreover, in assay [3], the Kd was found to be 1.55 nM, the koff was found to be 0.000616 s⁻¹ and the kon worked out at 398000 M⁻¹ s⁻¹.

B2: hSC200 (hSC17.200) (antibody, human IgG1, kappa, V domains shown)
VH: EVQLVQSGAEVKKPGESLKISCKGSGYSFTSSWINWVRQMPGKGLEWMGRIYPGEGDTNYNGNFEGQVTISADKSISTAYLQWSSLKASDTAMYYCTRGLVMDYWGQGTLVTVSS
VL: EIVLTQSPATLSLSPGERATLSCRASQSVDYNGISYMHWYQQKPGQAPRLLIYAASNVQSGIPARFSGSGSGTDFTLTISSLEPEDFAVYYCQQSIEDPPTFGGGTKVEIKR
notes: also called control molecule; control antibody
B2: in assay [1], the EC50 came to 0.26 nM and the MFImax was found to be 1160. Besides, in assay [2], the Kd is 59.9 nM, the koff worked out at 0.00468 s⁻¹ and the kon was 78200 M⁻¹ s⁻¹. In assay [3], the Kd was determined as 57.9 nM, the koff was found to be 0.00475 s⁻¹ and the kon amounted to 82000 M⁻¹ s⁻¹.
